Data taken from patent US20110008326A1 (published 2011).

Biological target: T1, Human, recombinant IL-4R-Fc protein (human, UniProt P24394 26-232)
T1 construct: also called immobilized receptor
T1 sequence: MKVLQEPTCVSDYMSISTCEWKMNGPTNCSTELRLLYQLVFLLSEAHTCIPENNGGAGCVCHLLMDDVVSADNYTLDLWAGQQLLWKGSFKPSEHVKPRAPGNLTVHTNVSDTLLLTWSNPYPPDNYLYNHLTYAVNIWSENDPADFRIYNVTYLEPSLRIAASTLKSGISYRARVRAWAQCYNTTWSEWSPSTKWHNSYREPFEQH
Assay: competition ELISA on IL-4R-Fc coated plates; competitor: 10 ng/ml mouse antibody X2/45
Method: Human, recombinant IL-4R-Fc protein was immobilized on ELISA plates at 100 ng/well followed by blocking of free binding sites.

binding result: binds
B1: humanised anti-IL-4R antibody (variable regions SEQ ID NOs: 13 and 14) (antibody, V domains shown)
VH: EVQLVESGGGLVKPGGSLRLSCAASGFTFNTNAMNWVRQAPGKGLEWVARIRSKSNNYATYYADSVKDRFTLSRDDSKNTLYLQMNSLKTEDTAVYYCTRDRGWGAMDYWGQGTTVTVSS
VL: DIQMTQSPSSLSASVGDRVTITCSASQDINNYLNWYQQKPGKAPKLLIYYTSSLHSGVPSRFSGSGSGTDFTLTISSLQPEDFATYYCQQFSNLPWTFGGGTKLEIK
notes: Full length antibody made in Hek 293T cells; light chain of kappa type; also called humanised antibody; humanised version of X2/45
